According to the nanobody polyreactivity screen of Harvey et al. (2022):

Assay: yeast display, Sf9 membrane polyspecificity reagent, FACS + sequencing; frameworks hold sequencing errors
How it was run: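 Using colony PCR, genes from sorted yeast display clones were amplified, then sequenced on MiSeq at 2 × 250 and filtered by CDR length. The clones had been stained with 10% biotinylated, detergent-solubilized Sf9 membrane reagent for 1 hour at 4 °C and sorted by FACS into low and high (top ~1%) gates on anti-HA and streptavidin fluorescence. Polyreactivity labels come from the gate of origin.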

Row | Sequence | polyreactivity (PSR sort gate)
1 | QVQLVESGGGLVQAGGSLRLSCAASGSTLWGYVMGWYRQAPGKERELVAVISKSGGSTYYADSVKGRFTISRDNAKNTVYLQMNSLKPEDTAVYYCATRGPYRSDWGQGTQVTVSS | high polyreactivity
2 | QVQLVESGGGLVQAGGSLRLSCASSGLTFAAYAMGWSRQAPGKERELVAAISRRGGSTYYADSVKGRFTISRDNAKNTVYLQMNSLKPEDTAVYYCAAENEVYWYDVEYWGQGTQVTVSS | high polyreactivity
3 | QVQLVESGGGLVQAGGSLRLSCAASGYIFLYNAMGWYRQAPGKERELVAAIRAIGGRTYYADSVKGRFTISRDNAKNTVYLQMNSLKPEDTAVYYCNARGQRRRSTGLRYIYDYWGQGTQVTVSS | high polyreactivity
4 | QVQLVESGGGLVQAGGSLRLSCAASGRTFRFYAMGWYRQAPGKERELVATIRSGASTYYADSVKGRFTISRDNAKNTVYLQMNSLKPEDTAVYYCAAGLYFPYVSVIVFRSYDYWGQGTQVTVSS | high polyreactivity
5 | QVQLVESGGGLVQAGGSRRLSFAASGFTFKYYAMGWYRQAPGKERELVDAISRRGGSTSYADSVKGRFTISRDNAKNTVYLKMNSLKPEDTSVYYLAADSSFERSSDYWGQGTQVTVSS | high polyreactivity
6 | QVQLGESGGGLVQAGGSLRLSCAASGSIFSNYAMGWYRQAPWKERELVATIRLSGGSTYYADSVKGRFTISRDNAKNTVYLQMNSLKPEDTAVYDCAARIHWPYWYARLDYWGQVTQVTVSS | high polyreactivity
7 | QVQLVESGGGLVQAGGSLRLSCAASGSISYFNAMGWYRQAPGKERELVAAITSGGSTYYADSVKGRFTISLDNAKNTVYLQMNSLKPEDTAVYYCNAPLEWGVYAAQNWDDGYWGQGTQVTVSS | low polyreactivity
8 | QVQLVESGGGLVQAGGSLRLSCAASGIIIPVYAMGWYRQAPGKERELVAAISSGGSTYYADSVKGRFTISRDNAKNTVYLQMNSLKPEDTAVFYCAAGYQKGYADPGFDYWGQGTQVTVSS | high polyreactivity
9 | QVQLVESGGGLVQAGGSLRLSCAASGITFGPYAMGWYRQAPGKERELVATISSSGGSTYYADSVKGRFTISRDNAKNTVYLQMNSLKPEDTAVYYCAAEYYVISSPSFYEYDYWGQGTQVTVSS | low polyreactivity
10 | QFQLVESGGGLVQAGVSLRLSCAASGSIILVYAMGLYIQATGKETELVPAITTRGSSTYYADSVKGRFKISRDNAKNTYYLQMNSLKPEDTEVYYCAKEFPGTQGRGVTGFSGTALGYWGQGTKVTVSS | low polyreactivity
11 | QVQLVESGGGLVQAGGSLRLSCAASGRTFHYNAMGWYRQAPGKERELVAAISFNGGGTYYADSVKGRFTISRDNAKNTVYLQMNSLKPEDTAVYYCATDVPSRYDYWGQGTQVTVSS | low polyreactivity
12 | QVQLVESGGGLLQAGGSLRLSCAASGSIFLYYAMGWYRQAPGKERELVAGISRGGGTTYYADSVKGRFTISRDNAKNTVYLQMNSLKPEDTAFYYCATVFWRSKHEYWGQGTQVTVSW | high polyreactivity
13 | QVQLVESGGGLVQAGGSLSLSCAASGFIFHYYAMAGYRQAPGKERELVAAISKTVGSTYYADSVKGRFTISRDNAKNTVYLQMNSRKPEDTAVYYCAVGYSRRNTPYDYWGQGTQVTVSS | high polyreactivity
14 | QVQLVESGGGLVQAGGSLRLSCAASGRTFGKYTMGWYRQAPGKQRELFAAINRRGGSTYYADSVKGRFTISRDNANNTVYLQMNSLKPEDTAVYYCSTDGYSIDRYYWGQGTQVTESS | high polyreactivity
15 | QVQLVESGGGLVQAGGSLRLSCAASGNTFRRYAMGWYRQAPGKERELVAAITGGTRTYYADSVKGRFTISRDNAKNTVYLQMISLKPEDTAVYYCAARLTSRSYRYDYWGQGTQVTVSS | high polyreactivity
16 | QVQLVESGGGLVQAGGSLRLRCAPSGFIFNTMGWYRQAPGKERDLVATISWSDGSTYYADSVKGRFTISRDNAKNTVYLHMNSLKTEDTADYYCAATTDALVGRPRYDYWGQGTQVTVSS | low polyreactivity
17 | QVHLEESGGGLVQAGGSLRLSCAASGSIFGDNAKGWYRQAPGKERELVAAISSSGGSTYADSVKGRFTISRDNAKNTVYLQMNSLKPEDTAVYYCATQIAWCTYVINPQMDFWGQGTLVTVSS | low polyreactivity
18 | QVQLVESGGGLVQAGGSLRLSCAASGNIYDVYAMGWYRQAPGKERELVADIDRGGTTYADSVKGRFTISRDNAKNTVYLQMNSLKPEATAVYYCAADYVQGFGFYYQWHSDYWGQGTQVTVSS | low polyreactivity
19 | QVQHVESVVGLVQAGVSLPLSGASSGYIFLENAMGWYRQATGKERELDAAITVSGGGTYYADSVKGRFTISRDNAKITVYLQMNSLKPEDTAVYYCAADEDNPWLWFYYWGLGTQVTVSS | low polyreactivity
20 | QDQLVESGGGLVQAGASLRLSCAASGSNGYYAMGWYRQAPGKERELVAVISRSGTGTYYADSVKGRFTISRDNAKNSVYLQMNSLKPEDTAVYYCNAETYTYRYEYDYWGQGTQVTVSS | high polyreactivity
21 | QVQLVESGGGLVQAGGSLRLSCAASGRIFSYNAMGWYRQAPGKERELVAAISYRGGSTYYADSVKGRFTISRDNAKNTVYLQMNSLNPEDTAVYYCNAEAYYPYGYDYWGQGTQVTVSS | low polyreactivity
22 | QVQLVESGGGLVQAGGSLRLSCAASGITFRANAKGWYRQAPGKERELVAAISARGGSTYYADSVKGRFTISRDNAKNTVYLQMNSLNPEDTAVYYCAKELSQGMRYDYWGQGTQVTVSS | high polyreactivity

Row | Sequence | polyreactivity (PSR sort gate)
23 | QVQLVESGGGLGQAGGSLRLSCAASGSIFYRYAMGWYRQAPGKERELVAAISSTGSTYYADSVKGRFTISRDHAKNTVYLEMNSLTPEDTAVYYGAARQGYRSYRRYDYWGQGTQVTVSS | high polyreactivity
24 | QVQLVESGGGLVQAGGSLRLSCAASGRIYVNAMGWYIQAPGKERELVAAIRSGGSTNYADSVKGRFTISRDNAKNTVYLQMNSLKPEDTAVYYCNARRRDYRHWYDYWGQGTQVTVSS | high polyreactivity
25 | QVQLVESGGGLVQAGGSLRLSCAASGRTFDLYDMGWYRQAPGKERELVARISYNGGITYYADSVKGRFTISRDNAKNTVYLQMNSLKPEDTAVYYCDGRYRPHFGPLFEYDYWGQGTQVTVSS | low polyreactivity
26 | QVQLVESGGGLVQAGGSLPLSCAASGGTFRGNAMGWYRQAPGKERELVAAITGSGGSTYYADSVTGRFTISRDNAKNTVYLQMNSLKPEDSAVYYCAVDRASRRTYNQYGYWGQGTQVTVSS | high polyreactivity
27 | QVQLVESGGGLVQAGGSLRLSCAASCRIFSYYVMGWYRQAPGKERELVAAISYRGGGTYYADSVKGRFTISRDNAKNNFYLQMNSLKPEDTAVYYCNADTYSNTYRAYDYWGQGTQVTVSS | low polyreactivity
28 | QVQLVESGGGLVQAGGSLRLSCAASGFTFSVYVMGWYRQAPGKERELVAAISSGGDTTYADSVKGRFTISRDNAKNTVYLQMNSLKPEDTAVYYCAAYRVILYYLYDYWGQGTQVTVSS | low polyreactivity
29 | QVQLVESGGGLVQAGGSLRLSCAASGFIFYSYVMGWSRQAPGKERELVAAISRSGGSTYYADSVKGRFTISRDNAKNTVYLQMNSLKPEDTAVYYCAVDGISGTSYGEGDEYWGQGTQVTVSS | high polyreactivity
30 | QVQLVESGGGLVQAGGSLRLSFAASGFNFEWYTMGWYRQAPGKEMELVADISGDGSTYYAVSVKGRFTISRDNAKNTVYLQMNSLKPEDTAVYYCAASFWGIAMGYWGQGTQVTVSS | high polyreactivity
31 | QVQLQESGDGLVQAVGSLRLSCAASGYISGYNYMGWYRQAPGKERELVAGIDAFGSSTNYADCVKGRFTISRDNAKNTVYLQMNSPKPEDTAVYYCAAEYDDWDYLWYWGQGTQVTVSS | low polyreactivity
32 | QVQLVESGGGLVQAGGSLRLSCAASGRIFYYTTMGWSRQAPGKERELVAAISVSGGSTYYADSVKGRFTISRDKAKNTVYLQRNSLKPEDTAVYYCNAKDWYFYRYDYWGQGTQVTVSS | low polyreactivity
33 | QVQLVESGGGLVQAGGSLRLSCAASGFIFNRNAMGWYRQAPGKERELVAGINSGGTTKYADSVKGRFTISRDNAKNTVYLQMISLIPEDTAVYYCAKPLNYRYYVGYPLDYWGQGTQVTVSS | low polyreactivity
34 | QVQLVESGGGLVQAGGSLRLSCAASGSIFRKNAMGWYREAPGKERELVATISGGGSTTYADSVKGRFTISRDNAKNTLYLQMNSLKPEDTAVYYCAARSTWFQIRYGYWGQGNQVTVSS | high polyreactivity
35 | QVQLVESGGGLVQAGGSLRLSCSASGSTFPPNAMGWYRQAPGKERELVAVISYSDGSTYYADSVKGRFTISRDNAKNTVYLQMNSLKPEDTAVYYCAAYSGYGGVSMYYWGQGTQVTVSS | low polyreactivity
36 | QVQLVESGGGLVQAGGSLRLSCAASGRIFYLYTMGWYRQAPGKEREFSRYYADSVKGRFTISRDNAKNTVYLQMNCLKPEDTAVYSCAAADHPPVWYGYWGQGTHVTVSS | low polyreactivity
37 | QVQLVESGGGLVQAGGSLRLSCAASGITLNGYVMGWYRQAPGKEREFVAVISSRGGSTYYADSVKGRFTISRDNAKNTVYLQMNSLKPEDTAVYYCAARWGYSRRGYRGYDYWGQGTQVTVSS | high polyreactivity
38 | QVQLVESGGGLVQAGGSLRLSCAASGTLATYAMGWYRQAPGKERELVAAIRYSDGRTYYADSVKGRFTISRDNAKNTFYLQMNSLKPEDTAVYYCAASFRGRGKKLDYWGQGTQVTVSS | low polyreactivity
39 | QVQLVESGGGLVQAGGSLSLICADSGSSFYGYAMGWYRQAPGKERELVAAITSSGGSTYYADSVKGRFTISRDNAKNTVYLQMNSLKPEDTAVYYCAARGSLGGWGLRYYWGQGTQVTVSS | high polyreactivity
40 | QVQLVESGGGLVQAGGSLRLSCAASGSIFGRNAMGGYRQAPGSERELVARISSRGGSTYYADSVKGRFTISRDNAKNTVDLQMNSLKPEDTAVYYCNRDRTSQTNDYWGQGTQVTVSS | high polyreactivity
41 | QVQLVESGGGLVQAGGSLRLSCAASGFTINFYAMGWYRQAPGKERELVAAITASGGGSTYYADSVKGRFTISRDNAKNTVYLQMNSLKPEDTAVYYCNADYTGSFYTYDYWGQGTQVTVSS | low polyreactivity
42 | QVQLVESGGGLVQAGGSLRLSCAASGFTFSAYAMGWYRQAPGKERELVAAITLRGGSTYYADSVKGRFTISRDNAKNTVYLQMNSLKPEDTAVYYCNADRWTRTEEEVDYWGQGTQVTVSS | low polyreactivity
43 | QVQLVESGGGLVQAGGSLRLSCAASGLTFPYYAMGWYRQAPGKERELVASISWSGASTYYADSVKGRSTISRDYAKNTVYLQMNSLKPEDTAVYYCNAGFYGSYDYWGQGTQVTVSS | high polyreactivity
